{"source": "patent US8110402B2", "about": "“Metal abstraction peptide (MAP) tag and associated methods” (University of Kansas, priority 2008, dated 2012)", "key": {"[1]": {"assay": "UV-Vis absorption spectroscopy of Ni coordination", "type": "binding", "protocol": "UV-Vis absorption spectra were used to measure the concentration of the PRL-1 protein. Briefly, the concentrations of purified PRL-1 analogs were measured at 280 nm and calculated using an extinction coefficient of 19420 M^−1 cm^−1. Because of possible metal-protein absorption interferences in the high 200 nm region, the validity of the UV-Vis quantification method was confirmed by the Bradford method. Spectra of PRL-1 analogs at concentrations of 10, 5, 2.5, and 1.25 mg/mL were collected on a Cary 100 UV-Vis spectrophotometer from 800 to 200 nm. […] The resulting spectra were resolved and peak positions were evaluated using GRAMS/AI 7.00 software. Three methods were aimed at metal displacement. In the first, PRL-1-WT (e.g., wild type) samples were reduced using 20 mM β-mercaptoethanol (BME), and imidazole was added to a concentration of 10 mM. For […] protein samples, this corresponds to […] solution excess of BME to compete with the two C-terminal cysteine thiols and a 200-fold solution excess of imidazole to compete with the single C-terminal histidine imidazole side chain. New baselines were taken and the spectra recalculated. In the second method, baselines were recalculated for buffer containing 100 μM EDTA, and the spectrum for the PRL-1-WT sample that was exchanged ten million fold in 100 μM EDTA was recorded. […]"}, "[2]": {"assay": "Metal displacement from Ni-purified PRL-1 followed by UV-Vis (BME, imidazole, EDTA, guanidinium hydrochloride/heat)", "type": "physicochemical", "protocol": "UV-Vis absorption spectra were used to measure the concentration of the PRL-1 protein. Briefly, the concentrations of purified PRL-1 analogs were measured at 280 nm and calculated using an extinction coefficient of 19420 M^−1 cm^−1. Because of possible metal-protein absorption interferences in the high 200 nm region, the validity of the UV-Vis quantification method was confirmed by the Bradford method. Spectra of PRL-1 analogs at concentrations of 10, 5, 2.5, and 1.25 mg/mL were collected on a Cary 100 UV-Vis spectrophotometer from 800 to 200 nm. […] The resulting spectra were resolved and peak positions were evaluated using GRAMS/AI 7.00 software. Three methods were aimed at metal displacement. In the first, PRL-1-WT (e.g., wild type) samples were reduced using 20 mM β-mercaptoethanol (BME), and imidazole was added to a concentration of 10 mM. For 0.5 mM protein samples, this corresponds to 400-fold solution excess of BME to compete with the two C-terminal cysteine thiols and a 200-fold solution excess of imidazole to compete with the single C-terminal histidine imidazole side chain. New baselines were taken and the spectra recalculated. In the second method, baselines were recalculated for buffer containing 100 μM EDTA, and the spectrum for the PRL-1-WT sample that was exchanged ten million fold in 100 μM EDTA was recorded. Finally, 10 mg/mL protein samples were denatured in 5.6 M guanidinium hydrochloride and heated to 90° C., new baselines were taken, and the spectra were collected at 0, 2, 4 and 6 hrs."}, "[3]": {"assay": "ICP-MS of metal bound to purified PRL-1 (Zn)", "type": "binding", "protocol": "(§1) ICP-MS was used to characterize the bound metal. Briefly, purified protein samples were digested in concentrated nitric acid in PFA microcentrifuge tubes (Savillex, #s 7240, 7241) at 68±1° C. for 16.5±0.7 hours. Based on protein quantification prior to digestion, the sample was then diluted to 1.5 μM in 20 mM ammonium bicarbonate, pH 8.2, filtered through a 0.2 μm nylon filter, and injected into a VG Elemental VGII+XS Inductively-Coupled Plasma-Mass Spectrometer fitted with a microconcentric nebulizer. A minimum of two separately prepared samples were analyzed for each protein variant. Each sample was scanned twice and standards were run before, between, and after each sample scan. Drift was monitored during washes between scans of both sample and standard injections.\nTo investigate our hypothesis that the chromophore arises from protein abstraction of the metal from the charged IMAC matrix, samples were subjected to ICP-MS for semi-quantitative analysis. […] On average 500 μM Ni-purified protein samples were digested in nitric acid for 16 h at 70° C. were determined to contain approximately 180 μM Ni, yielding a Ni to protein stoichiometry of 1:2.7+/−0.7. Zn was also detected in the Ni-purified samples at approximately 60 μM. […]"}, "[4]": {"assay": "ICP-MS of metal bound to purified PRL-1 variants (Ni)", "type": "binding", "conditions": "for Ni bound (ICP-MS): PRL-1 variants analyzed in parallel, Ni-IMAC purified", "protocol": "as §1\nTo investigate our hypothesis that the chromophore arises from protein abstraction of the metal from the charged IMAC matrix, samples were subjected to ICP-MS for semi-quantitative analysis. As extensive washing is used to remove background metals, the values obtained from this method inherently underestimate the amount of metal bound, but can be used to assess the relative affinity of different metals for the protein. Additionally, to identify an endogenous metal ligand that may have been bound to PRL-1 during expression in the cells, ICP-MS was used to look for the presence of a transition metal from the first two rows in the periodic table as well as other common biologically relevant metals. […] On average 500 μM Ni-purified protein samples were digested in nitric acid for 16 h at 70° C. were determined to contain approximately 180 μM Ni, yielding a Ni to protein stoichiometry of 1:2.7+/−0.7. Zn was also detected in the Ni-purified samples at approximately 60 μM. […] Because ICP-MS analysis is conducted in a flow of Ar and the most abundant isotope of Ar has the same mass as Ca, Ca binding cannot be determined from the primary mass signal. Nonetheless, because a much higher amount of Ca was present in the cell culture media compared to Zn and yet the ICP-MS signal corresponds largely to zinc, the protein is unlikely to bind calcium."}, "[5]": {"assay": "Solubility of metal-free protein", "type": "physicochemical", "conditions": "metal-free (apo) protein"}}, "note": "Where a SMILES comes first, the peptide text is derived from it. [ ]: non-standard residue; d: D form.", "data": [{"molecule": "NC(=O)C[C@@H](N)C(=O)N[C@H](CS)C(=O)N[C@H](CS)C(=O)O", "note": "[NCC] (H-[dN]-[dC]-[dC]-OH)", "values": [{"measurement": "absorbance spectrum after incubation with metal-charged IMAC resin", "setting": "[1]; synthetic tripeptides", "value": "mimics that observed for the peptide-metal complex embedded in PRL-1"}]}, {"molecule": "PRL-1: recombinant wild-type human PRL-1 protein containing the C-terminal NCC motif (protein, UniProt Q93096 1-170, looked up) Protein tyrosine phosphatase …: MARMNRPAPVEVTYKNMRFLITHNPTNATLNKFIEELKKYGVTTIVRVCEATYDTTLVEKEGIHVLDWPFDDGAPPSNQIVDDWLSLVKIKFREEPGCCIAVHCVAGLGRAPVLVALALIEGGMKYEDAVQFIRQKRRGAFNSKQLLYLEKYRPKMRLRFKDSNGHRNNC", "values": [{"measurement": "loss of peaks at 318, 421 and 526 nm (Ni release)", "setting": "[2]; 5.6 M guanidinium hydrochloride at 90° C.", "value": "only gradually disappear over 6 hrs"}, {"measurement": "effect of 10 mM imidazole on absorption profile", "setting": "[2]; Ni-purified", "value": "no effect"}, {"measurement": "effect of ten million-fold exchange into 100 μM EDTA on spectrum", "setting": "[2]; Ni-purified", "value": "little effect"}, {"measurement": "effect of 20 mM BME on absorption profile", "setting": "[2]; Ni-purified, pH 7.4", "value": "did not alter"}, {"measurement": "reversibility of Ni binding", "setting": "[2]; pH 7.4", "value": "irreversible"}, {"measurement": "Zn detected (ICP-MS)", "setting": "[3]; Ni-purified samples", "value": "approximately 60 μM"}, {"measurement": "Zn present (ICP-MS)", "setting": "[3]; purified using Zn-IMAC", "value": 270, "unit": "µM"}, {"measurement": "Ni bound (ICP-MS)", "setting": "[4]", "value": "approximately 120 μM"}, {"measurement": "Ni content (ICP-MS)", "setting": "[4]; on average 500 μM Ni-purified protein, nitric acid digest 16 h at 70° C.", "value": "approximately 180 μM"}]}, {"molecule": "Apo PRL-1: PRL-1 protein without bound metal (protein, UniProt Q93096 1-170, looked up, apo form, no bound metal) Protein tyrosine phosphatase …: MARMNRPAPVEVTYKNMRFLITHNPTNATLNKFIEELKKYGVTTIVRVCEATYDTTLVEKEGIHVLDWPFDDGAPPSNQIVDDWLSLVKIKFREEPGCCIAVHCVAGLGRAPVLVALALIEGGMKYEDAVQFIRQKRRGAFNSKQLLYLEKYRPKMRLRFKDSNGHRNNC", "values": [{"measurement": "solubility", "setting": "[5]", "value": "poorly soluble"}]}, {"molecule": "PRL-1-H166A: PRL-1 mutant with His166 of the NGH motif replaced by Ala (protein, UniProt Q93096 1-170, looked up, variant H166A) Protein tyrosine phosphatase …: MARMNRPAPVEVTYKNMRFLITHNPTNATLNKFIEELKKYGVTTIVRVCEATYDTTLVEKEGIHVLDWPFDDGAPPSNQIVDDWLSLVKIKFREEPGCCIAVHCVAGLGRAPVLVALALIEGGMKYEDAVQFIRQKRRGAFNSKQLLYLEKYRPKMRLRFKDSNGARNNC", "values": [{"measurement": "decrease in signal by absorption spectroscopy", "setting": "[1]; relative to wild-type PRL-1, Ni-purified", "value": 20, "unit": "%"}, {"measurement": "Ni bound (ICP-MS)", "setting": "[4]", "value": "~60", "unit": "µM"}]}, {"molecule": "C170S: PRL-1 mutant with Cys170 replaced by Ser (protein, UniProt Q93096 1-170, looked up, variant C170S) Protein tyrosine phosphatase …: MARMNRPAPVEVTYKNMRFLITHNPTNATLNKFIEELKKYGVTTIVRVCEATYDTTLVEKEGIHVLDWPFDDGAPPSNQIVDDWLSLVKIKFREEPGCCIAVHCVAGLGRAPVLVALALIEGGMKYEDAVQFIRQKRRGAFNSKQLLYLEKYRPKMRLRFKDSNGHRNNS", "values": [{"measurement": "Ni bound (ICP-MS)", "setting": "[4]", "value": "No Ni was detected"}]}]}
